According to patent US20150246949A1, “Desmoglein 2 (DSG2) Binding Proteins and Uses Therefor” (UNIVERSITY OF WASHINGTON THROUGH ITS CENTER FOR …, priority 2012, published 2015):
Residue numbers refer to the chain shown, from its start. Names and notes keep the numbering of the source. “Also recorded” adds a separate entry of the source.

B1: D261N (protein)
chain: MKVSALKEKVSALKEKVSALKEKVSALKEKVSALKEGSGGGSGGGSGGGSNSIALKNNTLWTGPKPEANCIIEYGKQNPDSKLTLILVKNGGIVNGYVTLMGASDYVNTLFKNKNVSINVELYFDATGHILPDSSSLKTDLELKYKQTADFSARGFMPSTTAYPFVLPNAGTHNENYIFGQCYYKASNGALFPLEVTVMLNKRLPDSRTSYVMTFLWSLNAGLAPETTQATLITSPFTFSYIREDD
B2: JO-4 (protein)
chain: B1 chain with Y177F, N188D
B3: JO-1: recombinant protein with the Ad3 fiber knob and a domain for self-dimerization of trimeric knobs (SEQ ID NO:27) (protein)
chain: B1 chain with N188D

Legend:
[1] = test system: polarized colon cancer T84 cells; assay: Transepithelial electrical resistance (TEER) permeability assay; type: cell-based; settings: for Effect on TEER: 5 μg dimeric Ad3 fiber knob added 1 hour to apical chamber
Description: (§1) FIG. 5. Correlation of reduced DSG2 binding with the ability to open epithelial junctions. A) Transepithelial electrical resistance (TEER) measured on polarized colon cancer T84 cells. Cells were cultured in transwell chambers until the TEER was constant, i.e. tight junctions had formed. A total of 5 μg of dimeric Ad3 fiber knobs in PBS was then added for 1 hour to the apical chamber. TEER was measured at the indicated time points. N=6. For time points 1.5 and 4 hours the difference between JO-1 vs D261N and N186D was significant (p<0.01). The arrows indicate the addition and removal of Ad3 fiber knobs. B) Enhancement of irinotecan therapy. A total of 4×10^6 A549 cells were injected subcutaneously into CB17-SCID/beige mice. Once the tumor reached a volume of ˜100 mm^3 (day 15 after implantation), the mice were injected intravenously with 2 mg/kg JO-1, E299V, N186D, or PBS, followed by an intravenous injection of irinotecan (37.5 mg/kg) one hour later. The treatment was repeated on day 25. N=5. […] The difference between “irinotecan” vs “JO-1+irinotecan” was significant (p<0.01) from day 20 on.
FIG. 9. Analysis of dimeric Ad3 fiber knob mutants with increased affinity to DSG2. A) Competition of Ad3-GFP virus infection on HeLa cells with dimeric affinity-enhanced mutant Y250F and JO-1 (dimeric wt Ad3 fiber knob). The experimental setting is as described for FIG. 3C. left panel: percentage of GFP positive cells. Right panel: mean fluorescence intensity. N=3. The standard deviation was less than 10%. B) Competition of Ad3-GFP virus infection on HeLa cells by Ad3 knob mutants with enhanced DSG2 binding but without dimerization domain. 1.5×10^5 HeLa cells were seeded into 24 well plates. Cells were incubated with the Ad3 knob mutants at the increasing concentrations for one hour at room temperature. 100 pfu/cell of Ad3GFP virus were then added and GFP expression was analyzed 18 hours later. C) TEER on colon cancer T84 cells. The experimental setting was the same as for FIG. 5A. The TEER at 4 hours is shown. N=3.
A total of 5×10^5 T84 cells were seeded in 12 mm transwell inserts (PET membrane, with 0.4 μm pore size (Corning, N.Y.) and cultured for >14 days until transepithelial electrical resistance (TEER) was stable. Culture medium was changed every 2-3 days. The cells were exposed to DSG2 ligands (20 μg/ml) in adhesion medium (DMEM, 1% FBS, 2 mM MgCl2, 20 mM HEPES) for 15 min at room temperature and TEER was measured and calculated as described elsewhere (39).

[2] = test system: A549 xenograft tumors; assay: Enhancement of irinotecan therapy in A549 xenograft tumors; type: in vivo, CB17-SCID/beige mice; settings: 2 mg/kg i.v. one hour before irinotecan 37.5 mg/kg i.v.; days 15 and 25; N=5
Description: as §1
FIG. 10. Combination of affinity-enhanced JO-1 versions with chemotherapy. A) Enhancement of irinotecan (I) therapy. The experimental setting was the same as in FIG. 5B. […] N=5. […] Mammary fat pad tumors were established from primary ovarian cancer ovc316 cells. Treatment was started when tumors reached a volume of 100 mm^3 Mice were injected intravenously with 2 mg/kg JO-1 or with 0.5 mg/kg JO-4, followed by an intravenous injection of PEGylated liposomal doxorubicin (PLD) (1 mg/kg) one hour later. Treatment was repeated weekly. […] A total of 4×10^6 TNBC MDA-MB-231 cells were injected into the mammary fat pad of CB17 SCID-beige mice. JO-4 (2 mg/kg) was intravenously injected 1 hour before the application of cetuximab (C) (10 mg/kg, i.p.) and nab-paclitaxel (nab-P) (5 mg/kg, i.v). Treatment was given weekly. N=10 P<0.01 at day 25 for nab-P+C vs JO-4+nab-P+C.
A549, MDA-MB-231, and ovc316 xenograft tumors were established by injection of the corresponding tumor cells into the mammary fat pad (1:1 with Matrigel) of CB17 mice. TC1-DSG2 tumors were established by subcutaneous injection of TC1-DSG2 cells into DSG2 transgenic mice. JO-0, JO-1, JO-2, or JO-4 were intravenously injected one hour before the application of chemotherapeutic drugs: Irinotecan/Camptosar™ (Pfizer Inc., Groton, Conn.), PEGylated liposomal doxorubicin/Lipodox™ (Sun Pharmaceuticals IN, India), cetuximab/Erbitux™ (ImClone, Somerville, N.J.), nanoparticle albumin conjugated paclitaxel/Abraxane™ (Abraxis Biosciences, Summit N.J.). Tumor volumes were measured three times a week. Each treatment group consisted of a minimum of 5 mice.

Row | Molecule | Effect on TEER [1] | TEER compared to JO-1 ([1]; dimeric affinity-enhanced mutants, TEER at 4 hours, N=3) | Enhancement of irinotecan therapy [2]
1 | B1 | no effect on the TEER |  | 
2 | B2 |  | significantly higher | increased irinotecan therapy significantly more than JO-1; also recorded: significantly more efficient than JO-2; also recorded: significant from day 20 on
3 | B3 | rapid decrease in the TEER |  | enhanced irinotecan therapy; also recorded: significant
